Columns and labels:
[1] = target: BG505 NFL.664 (native flexibly linked, cleavage-independent soluble HIV Env trimer) (HIV-1 isolate BG505 (clade A)); experiment: crystal structure
[2] = target: BG505 NFL.664 (native flexibly linked, cleavage-independent soluble HIV Env trimer) (HIV-1 isolate BG505 (clade A)); experiment: cryo-EM structure
BG505 SOSIP.664 = experiment: BLI
DSC = settings: glycan changed form; control: BG505 NFL.664 from HEK 293F, natural glycoforms

| Substance | stoichiometry N [1] | stoichiometry N [2] | Kd (BG505 SOSIP.664) | koff (BG505 SOSIP.664) | stability_or_folding, Tm (DSC) |
| --- | --- | --- | --- | --- | --- |
| BG505 NFL.664 (native flexibly linked, cleavage-independent soluble HIV Env trimer) | 3 | 3 |  |  |  |
| PGT121 Fab |  |  | 58.5 nM | 0.00033 s⁻¹ |  |
| PGT124 Fab |  |  | 38.3 nM | 0.00059 s⁻¹ |  |
| BG505 NFL.664 Env trimer: kifunensine and swainsonine (oligomannose only) |  |  |  |  | no change, 66.6 vs 65.8 |
